Here are results for three molecules from publication PMC3365654 (The Febs Journal, 2012).

B1: wildtype proline-rich (PR) domain of Gab1 (domain or fragment, human, UniProt Q13480 331-530, looked up)
chain: TSKLDTIPDIPPPRPPKPHPAHDRSPVETCSIPRTASDTDSSYCIPTAGMSPSRSNTISTVDLNKLRKDASSQDCYDIPRAFPSDRSSSLEGFHNHFKVKNVLTVGSVSSEELDENYVPMNPNSPPRQHSSSFTEPIQEANYVPMTPGTFDFSSFGMQVPPPAHMGFRSSPKTPPRRPVPVADCEPPPVDRNLKPDRKVK
B2: PR domain of Gab1 with the G2 motif mutated (domain or fragment, human, UniProt Q13480 331-530, looked up)
chain: B1 chain with R191A, K194A
B3: PR domain of Gab1 with the G1 motif mutated (domain or fragment, human, UniProt Q13480 331-530, looked up)
chain: B1 chain with R14A, K17A

Substitutions are numbered along the chain they refer to.

As usually defined, the Kd is the concentration at which binding is half-saturated. As a reminder, the stoichiometry N is the number of molecules, sites or subunits per partner or assembly.

Chain of wildtype full-length Grb2 (P62993 whole entry): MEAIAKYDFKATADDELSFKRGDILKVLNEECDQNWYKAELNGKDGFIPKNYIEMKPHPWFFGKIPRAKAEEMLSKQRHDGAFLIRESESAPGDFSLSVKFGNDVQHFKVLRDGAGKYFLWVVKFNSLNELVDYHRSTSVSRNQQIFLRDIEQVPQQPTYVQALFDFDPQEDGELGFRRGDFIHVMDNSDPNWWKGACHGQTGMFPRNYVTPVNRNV

The assay has as its target wildtype full-length Grb2 (human, UniProt P62993 1-217). As to the kind of experiment: ITC.
Turning to B1, the affinity, expressed as Kd, was 7.21 µM; the dH was -34.5 kcal/mol; the “stoichiometry N” value amounted to 1.94.
For B2, in that order: 20.3 µM, -13.2 kcal/mol and 1.02.
As to B3, the equilibrium dissociation constant (Kd) was 2.24 µM, the dH was -23.4 kcal/mol and the “stoichiometry N” value was 1.07.
